Assay results published in publication PMC5484490.
Where “and” joins values, the source holds several entries; their conditions need not be identical. Equal entries are not always repeated.

Experiments:
[1] = target: wild type full length human Hsp90β with non-cleavable His6-tag (human); assay: SEC-MALS; SEC-MALLS on Superdex 200, 0.35 ml/min, 25 mM Na-phosphate pH 7.2, 150 mM NaCl, 5 mM DTT; 10 ul of ~29 g/l loaded; legend: 2.2 uM monomer concentration
[2] = target: wild type full length human Hsp90β with non-cleavable His6-tag (human); assay: AUC; sedimentation at 42,000 rpm, 20°C, 16 hours, 7.2 uM Hsp90 in 25 Na-phosphate pH 7.2, 150 mM NaCl, 150 mM KCl, 5 mM DTT, protease inhibitor; absorbance optics; SedFit

stoichiometry N [1]: 2
stoichiometry N [2]: 2 and 4
Substance: wild type full length human Hsp90β with non-cleavable His6-tag (natural protein; other documents disagree on this pair)
